Laboratory results from patent publication US20240228595A1.

Key:
[1] = molecular target: SARS-COV-2 Omicron BA.2 RBD (AcroBiosystems Cat. No. SPD-C522g) (SARS-CoV-2 Omicron BA.2) (UniProt P0DTC2); test: ELISA, SARS-CoV-2-Omicron BA.2 RBD coated, antibody titrated
[2] = molecular target: SARS-COV-2 Delta RBD (Sino Biological Cat. No. 40592-V08H90) (SARS-CoV-2 Delta) (UniProt P0DTC2); test: ELISA, SARS-CoV-2-Delta RBD coated, antibody titrated
[3] = molecular target: SARS-COV-2 Omicron BA.2 spike on HIV-1 based pseudovirus (SARS-CoV-2 Omicron BA.2) (UniProt P0DTC2); test: cell-based or functional assay
[4] = molecular target: SARS-COV-2 Omicron BA.1 spike on HIV-1 based pseudovirus (Example 3) (SARS-CoV-2 Omicron BA.1) (UniProt P0DTC2); test: cell-based or functional assay
[5] = molecular target: SARS-COV-2 Omicron RBD recombinant protein (Sino Biological 40592-V08H121) (SARS-CoV-2 Omicron BA.1) (UniProt P0DTC2); test: ELISA, SARS-CoV-2-Omicron BA.1 RBD coated, antibody titrated

Q: Which results are given for S309 (Sotrovimab) (antibody)?
A: EC50 [1]: 4 ng/mL; EC50 [2]: 2 ng/mL; pseudovirus neutralization, IC50 [3]: 2750 ng/mL; pseudovirus neutralization, fold drop of activity against Omicron BA.2 [3]: 30 fold; pseudovirus neutralization, IC50 [4]: 446 ng/mL; EC50 [5]: 6 ng/mL
